Results on four substances are retold here after the supplement of paper PMC5998384.

Data set [1] has as its system HeLa Kyoto. Briefly: melting temperature (median over replicates), in situ; higher = more thermally stable.
The test system of data set [2] is HeLa Kyoto. As to the kind of experiment: solubility change mitosis vs G1/S (difference of NP-40 vs SDS log2 ratios) (log2 ratio difference); higher = more soluble in mitosis.
The test system of data set [3] is HeLa Kyoto. As to the kind of experiment: solubility in G1/S (NP-40 vs SDS abundance) (log2 ratio); higher = more soluble. The following applies: cell cycle stage: G1/S.
For data set [4], the system named is HeLa Kyoto. As to the kind of experiment: thermal stability score vs G1/S (z-score of summed log2 fold changes over temperatures); higher = more thermally stable than in G1/S.
[5] abbreviates: cell cycle stage: early G1 (4.5 h after nocodazole release).
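For melting temperature (median over replicates), in situ in this document: HeLa Kyoto cells synchronized by double thymidine or nocodazole block, proteins quantified by TMT10plex mass spectrometry, three independent biological replicates.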
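For solubility change mitosis vs G1/S (difference of NP-40 vs SDS log2 ratios) in this document: synchronized HeLa Kyoto cells (double thymidine block for G1/S, nocodazole release for mitosis), protein amounts in NP-40 versus SDS lysates quantified by mass spectrometry, three biological replicates.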
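For solubility in G1/S (NP-40 vs SDS abundance) in this document: HeLa Kyoto cells arrested at G1/S by double thymidine block, proteins quantified by TMT10plex mass spectrometry in mild NP-40 versus SDS extracts, three biological replicates.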
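For thermal stability score vs G1/S (z-score of summed log2 fold changes over temperatures) in this document: synchronized HeLa Kyoto cells, proteins quantified by TMT10plex mass spectrometry, three biological replicates, mitosis taken 0.5 h after nocodazole release, G1/S directly after double thymidine block.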

Sequence of ALDH16A1 (chain, as listed by the source): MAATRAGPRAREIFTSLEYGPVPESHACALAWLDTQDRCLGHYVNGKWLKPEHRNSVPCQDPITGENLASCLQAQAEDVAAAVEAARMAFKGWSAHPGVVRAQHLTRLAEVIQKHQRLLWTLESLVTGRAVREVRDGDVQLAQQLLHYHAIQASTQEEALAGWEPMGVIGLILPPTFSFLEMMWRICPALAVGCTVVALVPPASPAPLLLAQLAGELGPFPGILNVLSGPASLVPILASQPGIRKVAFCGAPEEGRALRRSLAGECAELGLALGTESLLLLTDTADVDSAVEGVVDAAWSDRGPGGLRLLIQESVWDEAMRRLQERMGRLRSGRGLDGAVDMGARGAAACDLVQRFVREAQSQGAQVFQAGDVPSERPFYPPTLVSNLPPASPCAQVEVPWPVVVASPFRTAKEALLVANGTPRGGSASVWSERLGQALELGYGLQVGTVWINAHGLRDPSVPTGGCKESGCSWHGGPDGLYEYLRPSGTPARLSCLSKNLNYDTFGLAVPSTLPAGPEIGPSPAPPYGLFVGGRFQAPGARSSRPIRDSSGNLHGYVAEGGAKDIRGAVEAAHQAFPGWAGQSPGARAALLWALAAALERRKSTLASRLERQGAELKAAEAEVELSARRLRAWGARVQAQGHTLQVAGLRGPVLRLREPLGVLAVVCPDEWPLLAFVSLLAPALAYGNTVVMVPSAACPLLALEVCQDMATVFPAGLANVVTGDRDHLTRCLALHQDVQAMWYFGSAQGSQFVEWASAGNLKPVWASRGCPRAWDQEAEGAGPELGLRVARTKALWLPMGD

For “MGDMTNSDFYSKNQRNESSHGGEFGCTMEELRSLMELRGTEAVVKIKETYGDTEAICRRLKTSPVEGLPGTAPDLEKRKQIFGQNFIPPKKPKTFLQLVWEALQDVTLIILEIAAIISLGLSFYHPPGEGNEGCATAQGGAEDEGEAEAGWIEGAAILLSVICVVLVTAFNDWSKEKQFRGLQSRIEQEQKFTVVRAGQVVQIPVAEIVVGDIAQVKYGDLLPADGLFIQGNDLKIDESSLTGESDQVRKSVDKDPMLLSGTHVMEGSGRMLVTAVGVNSQTGIIFTLLGAGGEEEEKKDKKGVKKGDGLQLPAADGAAASNAADSANASLVNGKMQDGNVDASQSKAKQQDGAAAMEMQPLKSAEGGDADDRKKASMHKKEKSVLQGKLTKLAVQIGKAGLVMSAITVIILVLYFTVDTFVVNKKPWLPECTPVYVQYFVKFFIIGVTVLVVAVPEGLPLAVTISLAYSVKKMMKDNNLVRHLDACETMGNATAICSDKTGTLTTNRMTVVQAYVGDVHYKEIPDPSSINTKTMELLINAIAINSAYTTKILPPEKEGALPRQVGNKTECGLLGFVLDLKQDYEPVRSQMPEEKLYKVYTFNSVRKSMSTVIKLPDESFRMYSKGASEIVLKKCCKILNGAGEPRVFRPRDRDEMVKKVIEPMACDGLRTICVAYRDFPSSPEPDWDNENDILNELTCICVVGIEDPVRPEVPEAIRKCQRAGITVRMVTGDNINTARAIAIKCGIIHPGEDFLCLEGKEFNRRIRNEKGEIEQERIDKIWPKLRVLARSSPTDKHTLVKGIIDSTHTEQRQVVAVTGDGTNDGPALKKADVGFAMGIAGTDVAKEASDIILTDDNFSSIVKAVMWGRNVYDSISKFLQFQLTVNVVAVIVAFTGACITQDSPLKAVQMLWVNLIMDTFASLALATEPPTETLLLRKPYGRNKPLISRTMMKNILGHAVYQLALIFTLLFVGEKMFQIDSGRNAPLHSPPSEHYTIIFNTFVMMQLFNEINARKIHGERNVFDGIFRNPIFCTIVLGTFAIQIVIVQFGGKPFSCSPLQLDQWMWCIFIGLGELVWGQVIATIPTSRLKFLKEAGRLTQKEEIPEEELNEDVEEIDHAERELRRGQILWFRGLNRIQTQIRVVKAFRSSLYEGLEKPESRTSIHNFMAHPEFRIEDSQPHIPLIDDTDLEEDAALKQNSSPPSSLNKNNSAIDSGINLTTDTSKSATSSSPGSPIHSLETSL [ATP2B2]”, the melting temperature in the data set with HeLa Kyoto [1] (cell cycle stage: G1/S) amounted to 54.2 °C; with HeLa Kyoto [1] (cell cycle stage: mitosis), 53.6 °C. Further, the “solubility change mitosis (log2)” value in the data set with HeLa Kyoto [2] is -0.123. The “solubility in G1/S (log2)” value in the data set with HeLa Kyoto [3] is -0.538. For the same substance, the thermal stability score in the data set with HeLa Kyoto [4] (setting [5]) is -1.72; with HeLa Kyoto [4] (cell cycle stage: mitosis), -2.96.

For the substance ALDH16A1, the melting temperature in the data set with HeLa Kyoto [1] (cell cycle stage: G1/S) was 58 °C; in the data set with HeLa Kyoto [1] (cell cycle stage: mitosis), 56.3 °C. In the data set with HeLa Kyoto [2], the “solubility change mitosis (log2)” value is -0.043. In the data set on HeLa Kyoto [3], the “solubility in G1/S (log2)” value amounted to 0.152. Further, the results for the thermal stability score with HeLa Kyoto [4] (setting [5]) and with HeLa Kyoto [4] (cell cycle stage: mitosis) were -4.57 and -4.01, respectively.

For the substance “MDPLGDTLRRLREAFHAGRTRPAEFRAAQLQGLGRFLQENKQLLHDALAQDLHKSAFESEVSEVAISQGEVTLALRNLRAWMKDERVPKNLATQLDSAFIRKEPFGLVLIIAPWNYPLNLTLVPLVGALAAGNCVVLKPSEISKNVEKILAEVLPQYVDQSCFAVVLGGPQETGQLLEHRFDYIFFTGSPRVGKIVMTAAAKHLTPVTLELGGKNPCYVDDNCDPQTVANRVAWFRYFNAGQTCVAPDYVLCSPEMQERLLPALQSTITRFYGDDPQSSPNLGRIINQKQFQRLRALLGCGRVAIGGQSDESDRYIAPTVLVDVQEMEPVMQEEIFGPILPIVNVQSLDEAIEFINRREKPLALYAFSNSSQVVKRVLTQTSSGGFCGNDGFMHMTLASLPFGGVGASGMGRYHGKFSFDTFSHHRACLLRSPGMEKLNALRYPPQSPRRLRMLLVAMEAQGCSCTLL [ALDH3B1]”, the results for the melting temperature with HeLa Kyoto [1] (cell cycle stage: G1/S) and in the data set on HeLa Kyoto [1] (cell cycle stage: mitosis) were 52.2 °C and 51.8 °C, respectively. Further, the “solubility change mitosis (log2)” value with HeLa Kyoto [2] was -0.152. Also, the “solubility in G1/S (log2)” value in the data set on HeLa Kyoto [3] was found to be 0.252. The figures for the thermal stability score with HeLa Kyoto [4] (setting [5]) and with HeLa Kyoto [4] (cell cycle stage: mitosis) were 0.958 and 1.14, respectively.

On to “MAKIAKTHEDIEAQIREIQGKKAALDEAQGVGLDSTGYYDQEIYGGSDSRFAGYVTSIAATELEDDDDDYSSSTSLLGQKKPGYHAPVALLNDIPQSTEQYDPFAEHRPPKIADREDEYKKHRRTMIISPERLDPFADGGKTPDPKMNARTYMDVMREQHLTKEEREIRQQLAEKAKAGELKVVNGAAASQPPSKRKRRWDQTADQTPGATPKKLSSWDQAETPGHTPSLRWDETPGRAKGSETPGATPGSKIWDPTPSHTPAGAATPGRGDTPGHATPGHGGATSSARKNRWDETPKTERDTPGHGSGWAETPRTDRGGDSIGETPTPGASKRKSRWDETPASQMGGSTPVLTPGKTPIGTPAMNMATPTPGHIMSMTPEQLQAWRWEREIDERNRPLSDEELDAMFPEGYKVLPPPAGYVPIRTPARKLTATPTPLGGMTGFHMQTEDRTMKSVNDQPSGNLPFLKPDDIQYFDKLLVDVDESTLSPEEQKERKIMKLLLKIKNGTPPMRKAALRQITDKAREFGAGPLFNQILPLLMSPTLEDQERHLLVKVIDRILYKLDDLVRPYVHKILVVIEPLLIDEDYYARVEGREIISNLAKAAGLATMISTMRPDIDNMDEYVRNTTARAFAVVASALGIPSLLPFLKAVCKSKKSWQARHTGIKIVQQIAILMGCAILPHLRSLVEIIEHGLVDEQQKVRTISALAIAALAEAATPYGIESFDSVLKPLWKGIRQHRGKGLAAFLKAIGYLIPLMDAEYANYYTREVMLILIREFQSPDEEMKKIVLKVVKQCCGTDGVEANYIKTEILPPFFKHFWQHRMALDRRNYRQLVDTTVELANKVGAAEIISRIVDDLKDEAEQYRKMVMETIEKIMGNLGAADIDHKLEEQLIDGILYAFQEQTTEDSVMLNGFGTVVNALGKRVKPYLPQICGTVLWRLNNKSAKVRQQAADLISRTAVVMKTCQEEKLMGHLGVVLYEYLGEEYPEVLGSILGALKAIVNVIGMHKMTPPIKDLLPRLTPILKNRHEKVQENCIDLVGRIADRGAEYVSAREWMRICFELLELLKAHKKAIRRATVNTFGYIAKAIGPHDVLATLLNNLKVQERQNRVCTTVAIAIVAETCSPFTVLPALMNEYRVPELNVQNGVLKSLSFLFEYIGEMGKDYIYAVTPLLEDALMDRDLVHRQTASAVVQHMSLGVYGFGCEDSLNHLLNYVWPNVFETSPHVIQAVMGALEGLRVAIGPCRMLQYCLQGLFHPARKVRDVYWKIYNSIYIGSQDALIAHYPRIYNDDKNTYIRYELDYIL [SF3B1]”, for which the melting temperature in the data set on HeLa Kyoto [1] (cell cycle stage: G1/S) amounted to 50.9 °C; with HeLa Kyoto [1] (cell cycle stage: mitosis), 50.4 °C. In addition, the “solubility change mitosis (log2)” value in the data set on HeLa Kyoto [2] was 0.299. Besides, the “solubility in G1/S (log2)” value in the data set on HeLa Kyoto [3] is -0.486. Besides, the thermal stability score was -1.78 in the data set on HeLa Kyoto [4] (setting [5]) and -0.315 in the data set on HeLa Kyoto [4] (cell cycle stage: mitosis).
